Reference: the supplement of paper PMC10567573
± gives the standard deviation.

Experiment: protein stability index of a GFP-peptide fusion (GPS, HEK-293T) (PSI 1-6); higher = more stable
[1] = treatment: DMSO, c terminus: a fixed tail appended
[2] = treatment: MLN4924 1 uM, 8 h, c terminus: a fixed tail appended
[3] = treatment: DMSO, c terminus: native
[4] = treatment: MLN4924 1 uM, 8 h, c terminus: native
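Note: 24-mer peptide tiles fused after GFP, lentivirally expressed, FACS-sorted into six equal bins by GFP/DsRed ratio, decoded by Illumina sequencing, PSI is the read-weighted mean bin number.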

Sequence	protein stability index [1]	protein stability index [2]	protein stability index [3]	protein stability index [4]
SLSNGQGSRVLHVVQTLYPFSSVT [NCK2]	2.01 ± 0.18	2.14 ± 0.21	–	–
SVILRRYFLELTQSFIIPLERYVA [DENND6A]	2.33 ± 0.63	2.88 ± 0.75	–	–
DGMRNKETLEGREKAFIAHFQDNL [MED27]	4.35 ± 0.17	4.2 ± 0.17	–	–
IRKKLKDSGDVSNVIEKVKCILKT [RHOBTB3]	3.1 ± 0.51	2.72 ± 0.94	–	–
DMKLIILANRLCLPHLVALTEQYT [RHOBTB2]	3.8 ± 0.26	3.08 ± 1.3	–	–
LMKHQTNISELKRTFLETSTDTAV [EPB41L3]	3.68 ± 0.79	3.92 ± 0.38	–	–
LDVDTAAGGFQQRQGLKYCLPLTF [FBXO3]	2.42 ± 0.19	2.22 ± 0.45	–	–
FKHPSIRNPVSLVVTRLVILGSGE [ADAMTS4]	–	3.03 ± 0.97	–	–
IIYMAILLTHRCLRDEHRCASKYG [DHCR7]	2.83 ± 0.75	2.75 ± 0.81	–	–
GAQMEKEWARALETRDWGGAQFEG [ZSWIM9]	4.11 ± 0.26	4.22 ± 0.1	–	–
STDNIVSQWDVLSGDCDQRFRFPS [RBBP5]	3.64 ± 0.1	3.67 ± 0.16	–	–
EKRNAGNAVRSAMKSEEQKIKDAR [KMT5A]	4.72 ± 0.15	5.09 ± 0.21	–	–
LHPVQKVILNYPSPWDQEERPAQR [TRAF3IP2]	3.4 ± 0.37	3.66 ± 0.34	–	–
ALARNLLVDGETGESFPAQVPSGE [NFE2L1]	4.79 ± 0.45	4.5 ± 0.61	–	–
HQRIHTGEKPYECVQCGKSYSQSS [ZNF24]	3.79 ± 0.4	3.92 ± 0.28	–	–
TASTKNCMVGYDMGATRCDFTLSK [CPXM2]	2.64 ± 0.4	3.03 ± 0.51	–	–
AEIPDGPPVVAHYDMSDTNSDPEV [C18orf25]	5.65 ± 0.21	5.48 ± 0.23	–	–
FHNAVSAYFAGNQKQLEQTLQQFN [ARFIP2]	2.45 ± 0.23	2.34 ± 0.42	–	–
FLPHHIMVKIFRLLPTKSLVALKC [FBXO34]	2.76 ± 0.39	2.29 ± 0.74	–	–
PPSYGGSSRYDDYSSSRDGYGGSR [RBMX]	4.612 ± 0.036	4.66 ± 0.33	–	–
DSGDVSNVIEKVKCILKTPGKINC [RHOBTB3]	2.92 ± 0.21	2.87 ± 0.5	–	–
NLVAGCLQLNARSFMMGQGGEAAH [NEUROD6]	2.34 ± 0.22	2.02 ± 0.11	–	–
TWLTTPKSTWPRYSKPGLSMRLLE [TCF25]	2.41 ± 0.61	2.29 ± 0.31	–	–

Sequence	protein stability index [1]	protein stability index [2]	protein stability index [3]	protein stability index [4]
DVTCFLLPHPGLQVATSPDFDGKL [ATL3]	2.58 ± 0.27	2.69 ± 0.35	–	–
AKLVDLPCVIESLRTLDKKTFYKT [TAF7L]	2.52 ± 0.47	2.18 ± 0.42	–	–
DTILKYLKDHFSHLLGIPHSVLQI [IQUB]	2.61 ± 0.43	2.63 ± 0.67	–	–
VGHARGLHAWQINWPARQRGTHAV [SPSB4]	2.96 ± 0.43	2.87 ± 0.24	–	–
FGHRFIILDTDEYVLKYMESNAAQ [EFHC1]	2.25 ± 0.45	2.05 ± 0.31	–	–
GKSFNRHCNLIRHQKIHTVAELV [ZSCAN9]	–	–	2.08 ± 0.28	2.05 ± 0.33
TSSLAQPGAYYPYERTLGQYQYER [IRX6]	3.25 ± 0.38	3.22 ± 0.21	–	–
HGAHINLQSLKFQGGHGPAATLLR [RIPK4]	2.65 ± 0.36	3 ± 0.047	–	–
INVNDLSFVTGSHVGELIIWDALD [WDR41]	2.22 ± 0.41	2.12 ± 0.2	–	–
ALQVPRGKEDSTLQLLREENRALQ [CBY2]	4.13 ± 0.25	4.23 ± 0.084	–	–
FITRQLKGLEDTKSPQFNRYFYLL [PDS5B]	2.01 ± 0.37	2.11 ± 0.16	–	–
RRERELQHAALGGTATRQNNWPPL [SCAMP3]	3.54 ± 0.16	3.82 ± 0.21	–	–
SRSRSRSRSRSRSRSNSRSRSYSP [SRSF1]	5.52 ± 0.33	5.56 ± 0.28	–	–
LAESEFESAAFSQGSRSGVSGGSR [PHTF1]	4.83 ± 0.3	4.93 ± 0.32	–	–
NHEIMPGGSVNITCVAVGSPMPYV [PTPRD]	2.15 ± 0.8	2.28 ± 0.16	–	–
RLPFLSAFERQQVENRVVEEAKGL [ZBED1]	4.17 ± 0.14	4.2 ± 0.22	–	–
ESTNPEKAHETLHQSLSLASSPKG [CDC25A]	5.37 ± 0.37	5.45 ± 0.27	–	–
DVHHGQGTQFTFDQDPSVLYFSIH [HDAC6]	2.04 ± 0.34	2.02 ± 0.34	–	–
RAKLDELEGALHQAKEELARMLRE [KRT71]	2.97 ± 0.36	3.7 ± 0.33	–	–
ASAPTYPSLYSSYHQGCLVNPTGN [NANOGP8]	3.29 ± 0.19	3.44 ± 0.17	–	–
HLVQHQHPNSRKSSAGGAKAGQPE [ZNF8]	4.8 ± 0.18	4.79 ± 0.16	–	–
TKPTQGASSASEPQGLFVEALSVP [CLPTM1]	4.13 ± 0.097	4.29 ± 0.19	–	–
ESAQATFQAHRDKYEKLRGDVAIK [ARFIP2]	4.37 ± 0.16	4.62 ± 0.18	–	–

Sequence	protein stability index [1]	protein stability index [2]	protein stability index [3]	protein stability index [4]
FPHPLWLRDTYKLWVPQPPPRTIK [PWWP2B]	2.33 ± 0.17	2.71 ± 0.33	–	–
EDEDDDSADMDESDEDDEEERRRR [FBXO3]	5.65 ± 0.27	5.69 ± 0.12	–	–
ISSMADFWDFAQGPLLDSLYWTKW [PKD2L1]	2.85 ± 1.3	2.53 ± 1.6	–	–
PQSSKSTVVKSLIDNSSEIEDEDQ [FAN1]	5.65 ± 0.14	5.6 ± 0.25	–	–
MSPSLQEGAQLGENKPSTCSFSIE [HESX1]	4.95 ± 0.3	5.07 ± 0.18	–	–
VEAVAYAPKKELINIKGISEAKAD [RAD51]	4.49 ± 0.22	4.52 ± 0.41	–	–
DPFTVPTISFICRELDAISTNEEE [PRIM1]	4.85 ± 0.31	4.78 ± 0.3	–	–
HPWKWSNGKEFNNWFNVTGSDKCV [CD69]	2.58 ± 0.53	2.46 ± 0.17	–	–
QPVSLRRRKREVLVEDMVSQEEAQ [ZNF24]	5.07 ± 0.25	5.34 ± 0.33	–	–
WDPHNGDILMEFGHLFPPPTPIFA [WSB1]	2.38 ± 0.31	2.21 ± 0.27	–	–
GISTGHWSGEVKDKNVQVVELPIV [FUT8]	3.8 ± 0.31	3.9 ± 0.37	–	–
RTANPSKTIDLGAAAHYTGDKASP [CLINT1]	4.99 ± 0.27	4.93 ± 0.083	–	–
EAEADKPRRLGRLKYQAPDIDVQL [NOP53]	4.63 ± 0.22	4.4 ± 0.2	–	–
PSQDERMRSPQNLHSQEDDDSSSE [NOL4L]	5.62 ± 0.14	5.56 ± 0.21	–	–
YNIKLKWTNQQKLYSRTGDIVEFV [CFHR2]	–	2.46 ± 0.41	–	–
KEHYLTFEKSRYETYIHLLAMKIK [PSD2]	3.28 ± 0.76	2.73 ± 0.94	–	–
DDKMVRFWRIDEDYPVQVAPLSNG [WSB1]	3.37 ± 0.34	3.45 ± 0.33	–	–
MEQFCWPHLRSFCETCVGSWSIQM	2.82 ± 0.44	2.49 ± 0.73	–	–
LLFVRGAGNCPECGTPLRKSNFRV [MNAT1]	2.2 ± 0.19	2.6 ± 0.32	–	–
QRLGIPKDPRQWTETHVRDWVMWA [ETS1]	2.37 ± 0.31	2.48 ± 0.3	–	–
DKDCSLDCAGSPQKPLCASDGRTF [SMOC2]	4.68 ± 0.39	4.76 ± 0.34	–	–
SLHHTSECTQMDHLGCMHYTVRAP [ALDH8A1]	3.04 ± 0.13	3.06 ± 0.25	–	–
NGNRRRRKLRKTVNGDGSRENGNN [PHTF1]	4.93 ± 0.43	5.12 ± 0.19	–	–

Sequence	protein stability index [1]	protein stability index [2]	protein stability index [3]	protein stability index [4]
DSFDKFEFCEPAFVVGNCLQIASD [PCMTD1]	3.31 ± 0.072	3.24 ± 0.22	–	–
GSMEALNLKQLRKRGSIPTSLTAL [PPFIA4]	3.11 ± 0.2	3.11 ± 0.22	–	–
DVRMGGSFRGAFSNSEKAKNIFRI [NET1]	2.32 ± 0.44	2.44 ± 0.31	–	–
TTFSTTSGYMEGYYTFHFLYFKDK [FBXO3]	2.97 ± 0.74	2.41 ± 0.41	–	–
LLSVDAFAAPSPATTASPAKVDSS [SNAP91]	4.86 ± 0.21	4.87 ± 0.07	–	–
HILASAPTDRNLCHFQALGCRTTH [PYCR3]	2.19 ± 0.45	2.23 ± 0.15	–	–
PLDVVKVRLQSQRPSMASELMPSS [SLC25A39]	3.65 ± 0.34	3.59 ± 0.36	–	–
TEAANAARHVAPEIRELLTQFET [PWWP2B]	–	–	3.49 ± 0.21	3.88 ± 0.29
LTHIEAQNKIRACGERLSLGLSRA [PDLIM7]	2.83 ± 0.27	2.85 ± 0.12	–	–
EQAKKESEDQKRLKQAKELDRERA [CHCHD3]	5.57 ± 0.24	5.48 ± 0.17	–	–
KKDTGHIYAMKILRKSDMLEKEQV [STK38L]	3.36 ± 0.39	3.54 ± 0.21	–	–
LQRLSHSGSRVRVGFRLCNSTGGD [SCNN1D]	3.14 ± 0.22	3.11 ± 0.18	–	–
MEACMDGHVEVARLLLDSGAQVNM [ANKRD17]	2.98 ± 0.32	3.06 ± 0.28	–	–
ELDLSLSDLNEVPVKELAALPKAT [LRRC59]	4.4 ± 0.25	4.49 ± 0.29	–	–
SPLAADPACLGQPHTPGKPTSSCT [FOXJ1]	4.95 ± 0.17	4.89 ± 0.2	–	–
FQKSLVLISKLPYIHFFHTVLKQI [DENND6A]	2.67 ± 0.72	2.42 ± 0.63	–	–
KPISTKSQFLKHQQTHNIEKAHEC [ZNF649]	4.48 ± 0.27	4.41 ± 0.16	–	–
TLRRIQASMAPAAALPPVPSPPAA [SERTAD1]	3.6 ± 0.23	3.8 ± 0.31	–	–
SGPRQLLTLYNPTGTALRFRVLCT [MOSPD3]	2.15 ± 0.48	2.16 ± 0.27	–	–
PDNCEMFLNFNGMKLFLDCLKEFP [ZER1]	2.25 ± 0.18	2.19 ± 0.33	–	–
